# From paper doi:10.1101/286310, “Dynamics of human protein kinases linked to drug selectivity” (bioRxiv, 2018)
# B1: dephosphorylated Aurora A (122-403) (domain or fragment, human, UniProt O14965 122-403, looked up)
# chain: ESKKRQWALEDFEIGRPLGKGKFGNVYLAREKQSKFILALKVLFKAQLEKAGVEHQLRREVEIQSHLRHPNILRLYGYFHDATRVYLILEYAPLGTVYRELQKLSKFDEQRTATYITELANALSYCHSKRVIHRDIKPENLLLGSAGELKIADFGWSVHAPSSRRTTLCGTLDYLPPEMIEGRMHDEKVDLWSLGVLCYEFLVGKPPFEANTYQETYKRISRVEFTFPDFVTEGARDLISRLLKHNPSQRPMLREVLEHPWITANSSKPSNCQNKESASKQS
# notes: Aurora A kinase (Ser/Thr kinase), residues 122-403, dephosphorylated; also called AurA; deP Aurora A^122-403; source: expressed and purified as described before (Zorba et al., 2014); dephosphorylated state confirmed by mass spectrometry
# Biological target: the molecule itself
# Experiment: crystal structure; co-crystallised: 240 uM deP Aurora A 122-403 + 1.0 mM AT9283 + 250 uM Mb; sitting drop, 18 °C; 0.1 M Bis-Tris pH 5.5, 0.2 M magnesium chloride, 19% (w/v) PEG-3350
protein,measurement,value
B1,binding result,binds
